Bridges are numbered along the chain shown (N, C = ends). Primed or numbered codes have the meaning given here. DBCO′ = dibenzocyclooctyne
Tests used:
[1] = target: Fc tagged recombinant human EGFR (rhEGFR-Fc, R&D systems, Cat#344-ER-050) (human) (UniProt P00533); assay: screening ELISA, peptide 100 µM against 0.7 nM biotin-EGF on coated rhEGFR
[2] = target: T1, Fc tagged recombinant human EGFR (rhEGFR-Fc, R&D systems, Cat#344-ER-050) (human, UniProt P00533 25-645); assay: EGF competition ELISA, 10% nanoparticle conjugate
T1 construct: Bought protein; also called apo-EGFR; not shown: Fc tag

[3] = target: T2, EGF bound EGFR (rhEGFR-Fc with recombinant human EGF pre-injected in SPR or 50 nM EGF present in ELISA) (human, UniProt P00533 25-645; P01133 971-1023); assay: P2 competition ELISA: rhEGFR on the plate, 1 nM P2-Biotin dimer as tracer, 50 nM EGF
T2 construct: Complex of m1 and m5 as target; also called EGFR in the presence of EGF; With EGF; not shown: Fc tag
Text: An additional assay was developed to provide an orthogonal assay to SPR during the evaluation of the P₂ peptide analogs and nanoparticle conjugates.

B1: EGFf-3 (peptide)
peptide: H-DGYCLHDGVC-NH2
modifications: cysteine pairing not given here
A % inhibition of EGF [1] of 62.5% was found for B1 in this work.

B2: 10% P1 nanoparticle (other)
peptide: Ac-SECFPLAPDWLSCILGGK(DBCO′)-NH2
modifications: disulfide 3-13; also: DBCO clicked to azide PLA-PEG nanoparticle, 10 mol %
notes: Multivalent nanoparticle conjugate; also called P1 conjugated to nanoparticle at 10 mol %; P1 NP
An IC50 [2] of 211 µg/mL was found for B2 in this work.

B3: 10% P1-3 nanoparticle (other)
peptide: Ac-SECFPAAPDWLSCILGGK(DBCO′)-NH2
modifications: disulfide 3-13; also: DBCO clicked to azide PLA-PEG nanoparticle, 10 mol %
notes: also called P1-3 NP; P1-3 (Leu6-Ala) conjugate
An IC50 [2] of 10.3 µg/mL was found for B3 in this work.

B4: P2 (Ac-DPCTWEVWGRECLQGGK(PEG4-DBCO)-CONH2) (peptide)
peptide: Ac-DPCTWEVWGRECLQGGK(PEG4‑DBCO)-NH2
modifications: disulfide 3-12
notes: also called P2 DBCO conjugate; parent peptide (P2)
With B4 the “IC50 (read off the curve)” value [3] was about 200 nM.
